In US20150353628A1 (published 2015) one finds Kd and EC50 data, which are given here for 4 molecules.

The target in experiment [1] is T1, pertussis toxin protein (Bordetella pertussis, UniProt P04977 35-269; P04978 28-226; P04979 29-227; P0A3R5 43-152; P04981 35-133).
T1 construct: also called PTx; PT
Nature of the experiment: competition ELISA.

Experiment [2] concerns the target T1, pertussis toxin protein. Nature of the experiment: ELISA, PTx coated, anti-mouse-HRP secondary. An excerpt: Specifically, the pertussis toxin protein was used for coating while anti-mouse-HRP or anti-human Fc-HRP were used as secondary antibodies. TMB(3,3′,5,5′-Tetramethylbenzidine) was used as substrate for the assay.
The target of experiment [3] is T1, pertussis toxin protein. Nature of the experiment: pertussis toxin competition assay (ELISA read-out). (In general: ELISA stands for enzyme-linked immunosorbent assay.)

B1: murine m1B7 antibody (antibody, V domains shown)
VH: QVQLQQPGSELVRPGASVKLSCKASGYKFTSYWMHWVKQRPGQGLEWIGNIFPGSGSTNYDEKFNSKATLTVDTSSNTAYMQLSSLTSEDSAVYYCTRWLSGAYFDYWGQGTTLTVSS
VL: QIVLTQSPALMSASPGEKVTMTCSASSSVSFMYWYQQKPRSSPKPWIYLTSNLPSGVPARFSGSGSGTSYSLTISSMEAEDAATYYCQQWSSHPPTFGSGTKLEIK
notes: also called parental murine 1B7 antibody; mouse 1B7
With B1, the Kd – broadly, the free concentration of one partner at which half of the binding sites on the other are occupied at equilibrium, for simple one-to-one binding – with pertussis toxin protein [1] worked out at 0.4 nM; in the experiment with pertussis toxin protein [3], 0.15 nM. Moreover, the EC50 – broadly, the concentration at which the effect is half-maximal – with pertussis toxin protein [2] turned out to be 0.19 nM.

B2: chimeric 1B7 antibody (antibody, V domains shown)
VH: B1 VH
VL: B1 VL
notes: also called ch1B7
As for B2, the affinity with pertussis toxin protein [1], expressed as Kd, was 0.5 nM.

B3: murine m11E6 antibody (antibody, V domains shown)
VH: EVKVVESGGGLVQPGGSLRLSCTTSGFTFTDYYVSWVRQPPGKALEWLGFIRNKVNGYTTEFSSSVKGRFTISRDNSQSILYLQMNTLRVEDSATYYCARVSYYGRGWYFDYWGQGTTLTVSS
VL: DIVMTQSTSSLSASLGDRVTISCRASQDIDNYLSWFQQKPDGTVKLLIYYTSRLHSGVPSRFSGSGSGTDYSLTISSLDQEDIATYFCQQGNTFPWTFGGGTKLEIK
notes: also called parental murine 11E6 antibody; mouse 11E6
B3 displayed a Kd in the experiment with pertussis toxin protein [1] of 5 nM. Moreover, the EC50 with pertussis toxin protein [2] was determined as 2.7 nM.

B4: chimeric 11E6 antibody (antibody, V domains shown)
VH: B3 VH
VL: B3 VL
notes: also called ch11E6
The molecule B4 displayed a Kd in the experiment with pertussis toxin protein [1] of 5 nM.
